According to the RNAGym collection of RNA variant scans (doi:10.1101/gr.219683.116):

B1: mRNA-splicing (parent)
chain: AGUUGCUGCUGGGAGCUCCAGCACAGUGAAAUGGACAGAAGGGCAGAGCAA

Variants of: B1
Experiment: exon inclusion enrichment index; higher = more inclusion; WT1 exon 5 minigene, HEK293

In order of falling “exon inclusion enrichment index” value:
1. G5C C6A U7C G8C C9G U10A  2.51
2. G5C C6A U7C G8A U10G G11C  2
3. G5C C6A U7C G8C C9U U10C  1.98
4. G5C C6A U7C G8A U10C  1.71
5. G5C C6A U7C G8A U10C G11U  1.71
6. G5C C6A U7C G8A U10G G11A  1.71
7. G5C C6A U7C G8A U10G G11U  1.69
8. G5C C6A U7C G8A U10C G11C  1.58
9. G5C C6A U7C G8A U10A G42A G43C  1.53
10. G5C C6A U7C G8A U10A G42A G43A  1.43
11. G5C C6A U7C G8A U10A G42A G43U  1.25
12. G5C C6A U7C G8A U10A G43C C44G  1.22
13. G5C C6A U7C G8A U10C G11A  1.06
14. G5C C6A U7C G8C C9A U10A  0.741
15. G5C C6A U7C G8A U10G  0.737
16. G5C C6A U7C G8A U10A G43A C44G  0.71
17. G5C C6A U7C G8A U10A G41C G42C  0.654
18. G5C C6A U7C G8A U10A G42C G43C  0.652
19. G5C C6A U7C G8A U10A G26U U27C  0.613
20. G5C C6A U7C G8A U10A G43C C44A  0.602
21. G5C C6A U7C G8A U10A G43A  0.595
22. G5C C6A U7C G8A U10A G26A U27C  0.555
23. G5C C6A U7C G8A U10A G26C U27C  0.54
24. G5C C6A U7C G8A U10A G26C U27G  0.537
25. G5C C6A U7C G8A U10A G43A C44A  0.532
26. G5C C6A U7C G8A U10A G42C  0.501
27. G5C C6A U7C G8A U10A G46U A47C  0.501
28. G5C C6A U7C G8C U10A  0.494
29. G5C C6A U7C G8A U10A G42C G43U  0.483
30. G5C C6A U7C G8A U10A G41C G42U  0.481
31. G5C C6A U7C G8A U10A G41C  0.467
32. G5C C6A U7C G8A U10A G42C G43A  0.455
33. G5C C6A U7C G8A U10A G46A A47C  0.439
34. G5C C6A U7C G8A U10A G42A  0.428
35. G5C C6A U7C G8A U10A U27C  0.417
36. G5C C6A U7C G8A U10A G42U G43A  0.386
37. G5C C6A U7C G8A U10A G41U G42C  0.369
38. G5C C6A U7C G8A U10A G26U U27G  0.355
39. G5C C6A U7C G8A U10A G21C C22G  0.322
40. G5C C6A U7C G8A U10A G42U G43U  0.305
41. G5C C6A U7C G8A U10A U32C  0.292
42. G5C C6A U7C G8A U10A G41A G42C  0.264
43. G5C C6A U7C G8A U10A G26A U27G  0.258
44. G5C C6A U7C G8A U10A G48A  0.25
45. G5C C6A U7C G8A U10A G28C A29G  0.241
46. G5C C6A U7C G8A U10A G43C  0.238
47. G5C C6A U7C G8A U10A G48U  0.218
48. G5C C6A U7C G8A U10A G48C  0.213
49. G5C C6A U7C G8A U10A G46C A47C  0.209
50. G5C C6A U7C G8A U10A G46U A47U  0.206
51. G5C C6A U7C G8A U10A G46C A47G  0.199
52. G5C C6A U7C G8A U10A U32A G33C  0.174
53. G5C C6A U7C G8A U10A U17C C18G  0.166
54. G5C C6A U7C G8A U10A U27C G28C  0.163
55. G5C C6A U7C G8A U10A G33C  0.162
56. G5C C6A U7C G8A U10A G43A C44U  0.16
57. G5C C6A U7C G8A U10A G46A A47U  0.159
58. G5C C6A U7C G8A U10A U17G C18G  0.159
59. G5C C6A U7C G8A U10A G26A  0.156
60. G5C C6A U7C G8A U10A G42U  0.154
61. G5C C6A U7C G8A U10A U32C G33C  0.153
62. G5C C6A U7C G8A U10A U27A G28C  0.152
63. G5C C6A U7C G8A U10A U27A  0.151
64. G5C C6A U7C G8A U10A G46A  0.143
65. G5C C6A U7C G8A U10A U27C G28A  0.142
66. G5C C6A U7C G8A U10A G26C  0.141
67. G5C C6A U7C G8A U10A G41C G42A  0.141
68. G5C C6A U7C G8A U10A G46C A47U  0.141
69. G5C C6A U7C G8A U10A G38C A39C  0.136
70. G5C C6A U7C G8A U10A G26A U27A  0.131
71. G5C C6A U7C G8A U10A U27G G28A  0.122
72. G5C C6A U7C G8A U10A G46U A47G  0.118
73. G5C C6A U7C G8A U10A G21U C22G  0.113
74. G5C C6A U7C G8A U10A G43U C44G  0.112
75. G5C C6A U7C G8A U10A U27A G28A  0.112
76. G5C C6A U7C G8A U10A G38C A39G  0.111
77. G5C C6A U7C G8A U10A U17G C18A  0.109
78. G5C C6A U7C G8A U10A G38A A39C  0.107
79. G5C C6A U7C G8C C9U U10A  0.107
80. G5C C6A U7C G8A U10A U17A  0.106
81. G5C C6A U7C G8A U10A G21C C22U  0.105
82. G5C C6A U7C G8A U10A G41A G42U  0.105
83. G5C C6A U7C G8A U10A G38A A39G  0.102
84. G5C C6A U7C G8A U10A G41U  0.102
85. G5C C6A U7C G8A U10A G41A G42A  0.101
86. G5C C6A U7C G8A U10A G43U  0.0948
87. G5C C6A U7C G8A U10A G26U  0.091
88. G5C C6A U7C G8A U10A U17A C18G  0.0895
89. G5C C6A U7C G8U C9A U10A  0.0885
90. G5C C6A U7C G8A U10A G43C C44U  0.0879
91. G5C C6A U7C G8A U10A U32A  0.0862
92. G5C C6A U7C G8A U10A U32G G33C  0.0862
93. G5C C6A U7C G8A U10A G41U G42U  0.0854
94. G5C C6A U7C G8A U10A G28C A29C  0.0814
95. G5C C6A U7C G8A U10A G34A A35C  0.0814
96. G5C C6A U7C G8A U10A U27C G28U  0.0768
97. G5C C6A U7C G8A U10A G26C U27A  0.076
98. G5C C6A U7C G8A U10A G28U A29G  0.0731
99. G5C C6A U7C G8A U10A G46C  0.0718
100. G5C C6A U7C G8A U10A U32C G33U  0.0717
101. G5C C6A U7C G8A U10A U17G  0.0684
102. G5C C6A U7C G8A U10A G33C G34U  0.0659
103. G5C C6A U7C G8A U10A G34C A35G  0.0658
104. G5C C6A U7C G8A U10A G38C  0.0648
105. G5C C6A U7C G8A U10A G42U G43C  0.0644
106. G5C C6A U7C G8A U10A G46U  0.0644
107. G5C C6A U7C G8A U10A G21U  0.0631
108. G5C C6A U7C G8A U10A U17C C18A  0.063
109. G5C C6A U7C G8A U10A U17C C18U  0.0619
110. G5C C6A U7C G8A U10A G41A  0.0572
111. G5C C6A U7C G8A U10A G38U A39C  0.0552
112. G5C C6A U7C G8A U10A G33U  0.0519
113. G5C C6A U7C G8A U10A G28U A29C  0.0517
114. G5C C6A U7C G8A U10A U17G C18U  0.0504
115. G5C C6A U7C G8A U10A G28C  0.0496
116. G5C C6A U7C G8A U10A G28C A29U  0.0485
117. G5C C6A U7C G8A U10A G28A A29C  0.0469
118. G5C C6A U7C G8A U10A G38A  0.0452
119. G5C C6A U7C G8A U10A U17A C18U  0.0447
120. G5C C6A U7C G8A U10A U17C  0.0444
121. G5C C6A U7C G8A U10A U17A C18A  0.043
122. G5C C6A U7C G8A U10A U27G  0.0422
123. G5C C6A U7C G8A U10A U32A G33U  0.0392
124. G5C C6A U7C G8A U10A U27A G28U  0.0378
125. G5C C6A U7C G8A U10A G38U A39G  0.0343
126. G5C C6A U7C G8A U10A G38U  0.0342
127. G5C C6A U7C G8A U10A G41U G42A  0.0336
128. G5C C6A U7C G8A U10A G34A  0.0333
129. G5C C6A U7C G8A U10A G46A A47G  0.0332
130. G5C C6A U7C G8A U10A U32C G33A  0.033
131. G5C C6A U7C G8A U10A G33C G34A  0.0324
132. G5C C6A U7C G8A U10A G33A G34C  0.0321
133. G5C C6A U7C G8A U10A G21U C22A  0.0315
134. G5C C6A U7C G8A U10A U27G G28C  0.0314
135. G5C C6A U7C G8A U10A G26U U27A  0.0285
136. G5C C6A U7C G8A U10A G33C G34C  0.0275
137. G5C C6A U7C G8A U10A G34A A35G  0.0257
138. G5C C6A U7C G8A U10A G28A A29G  0.0244
139. G5C C6A U7C G8A U10A G28A A29U  0.0236
140. G5C C6A U7C G8A U10A G34A A35U  0.0204
141. G5C C6A U7C G8A U10A G34C  0.0202
142. G5C C6A U7C G8A U10A G34U A35G  0.0186
143. G5C C6A U7C G8A U10A G43U C44U  0.0172
144. G5C C6A U7C G8A U10A G34C A35U  0.0152
145. G5C C6A U7C G8A U10A U32A G33A  0.0122
146. G5C C6A U7C G8A U10A G34U  0.012
147. G5C C6A U7C G8A U10A G28A  0.0118
148. G5C C6A U7C G8A U10A G21U C22U  0.011
149. G5C C6A U7C G8A U10A G34U A35C  0.0109
150. G5C C6A U7C G8A U10A G33U G34A  0.0098
151. G5C C6A U7C G8A U10A G28U  0.00934
152. G5C C6A U7C G8A U10A G43U C44A  0.00933
153. G5C C6A U7C G8A U10A U32G G33U  0.009
154. G5C C6A U7C G8A U10A G38A A39U  0.0079
155. G5C C6A U7C G8A U10A U32G G33A  0.00787
156. G5C C6A U7C G8A U10A G33U G34U  0.00723
157. G5C C6A U7C G8A U10A G33A  0.00667
158. G5C C6A U7C G8A U10A G33A G34U  0.00646
159. G5C C6A U7C G8A U10A U32G  0.00606
160. G5C C6A U7C G8A U10A G33U G34C  0.00585
161. G5C C6A U7C G8A U10A G38C A39U  0.00505
162. G5C C6A U7C G8A U10A G34U A35U  0.00489
163. G5C C6A U7C G8A U10A G33A G34A  0.00429
164. G5C C6A U7C G8A U10A G34C A35C  0.0037
165. G5C C6A U7C G8A U10A G28U A29U  0.00263
166. G5C C6A U7C G8A U10A U27G G28U  0.00217
167. G5C C6A U7C G8A U10A G38U A39U  0.00131
